# Read-outs that look alike come from different tables or passages of the source.
# T1: recombinant human IL-1α (human, UniProt P01583 113-271)
# T1 construct: Purified recombinant protein bought from R&D Systems; also called hIL-1α; rhIL-1α
# T1 sequence: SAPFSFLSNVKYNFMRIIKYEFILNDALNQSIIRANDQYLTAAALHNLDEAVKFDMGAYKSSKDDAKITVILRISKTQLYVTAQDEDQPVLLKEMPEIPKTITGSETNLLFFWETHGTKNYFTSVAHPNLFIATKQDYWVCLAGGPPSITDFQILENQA
# T2: murine IL-1α (mouse, UniProt P01582 115-270)
# T2 construct: also called mIL-1α; mouse IL-1α
# T2 sequence (looked up): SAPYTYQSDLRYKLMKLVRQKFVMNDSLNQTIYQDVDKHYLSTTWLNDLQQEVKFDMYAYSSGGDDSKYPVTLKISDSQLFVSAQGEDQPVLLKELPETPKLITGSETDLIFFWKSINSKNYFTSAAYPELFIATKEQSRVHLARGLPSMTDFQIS
# Columns and labels:
# [1] = target: T3, recombinant human IL-1β (human, UniProt P01584 117-269); assay: SPR (Biacore 3000), binder captured via goat anti-human IgG Fc
# T3 construct: Recombinant protein; also called hIL-1β; rhIL-1β
# Procedure: (§1) Approximately, 5000 RU of goat anti-human IgG Fcγ fragment specific polyclonal antibody (Pierce Biotechnology Inc, Rockford, Ill.) diluted in 10 mM sodium acetate (pH 4.5) was directly immobilized across a CM5 research grade biosensor chip using a standard amine coupling kit according to manufacturer's instructions and procedures at […]. Unreacted moieties on the biosensor surface were blocked with ethanolamine. Modified carboxymethyl dextran surface in flowcell 2 and 4 was used as a reaction surface. Unmodified carboxymethyl dextran without goat anti-human IgG in flow cell 1 and 3 was used as the reference surface. For kinetic analysis, rate equations derived from the 1:1 Langmuir binding model were fitted simultaneously to association and dissociation phases of all ten injections (using global fit analysis) using the Bioevaluation 4.0.1 software. Purified DVD-Ig samples were diluted in HEPES-buffered saline for capture across goat anti-human IgG Fc specific reaction surfaces and injected over reaction matrices at a flow rate of […]. The association and dissociation rate constants, kon (M-1s-1) and koff (s-1) were determined under a continuous flow rate of 25 ml/minute. […] The equilibrium dissociation constant (M) of the reaction between DVD-Ig molecule and rhIL1α/β was then calculated from the kinetic rate constants by the following formula: KD=koff/kon. Aliquots of rhIL1α/β samples were also simultaneously injected over a blank reference and reaction CM surface to record and subtract any nonspecific binding background to eliminate the majority of the refractive index change and injection noise. Surfaces were regenerated with two subsequent […] injections of 10 mM Glycine (pH 1.5) at a flow rate of […]. The anti-Fc antibody immobilized surfaces were completely regenerated and retained their full capture capacity over twelve cycles. The apparent stoichiometry of the captured DVD-Ig-rhIL1α/β complex was calculated under saturating binding conditions (steady-state equilibrium) using the following formula: […]
# [2] = target: T3, recombinant human IL-1β; assay: SPR (Biacore 3000), saturating binding
# Procedure: (§2) The association and dissociation rate constants, kon (M-1s-1) and koff (s-1) were determined under a continuous flow rate of 25 ml/minute. […] The equilibrium dissociation constant (M) of the reaction between DVD-Ig molecule and rhIL1α/β was then calculated from the kinetic rate constants by the following formula: KD=koff/kon. Aliquots of rhIL1α/β samples were also simultaneously injected over a blank reference and reaction CM surface to record and subtract any nonspecific binding background to eliminate the majority of the refractive index change and injection noise. Surfaces were regenerated with two subsequent […] injections of 10 mM Glycine (pH 1.5) at a flow rate of […]. The anti-Fc antibody immobilized surfaces were completely regenerated and retained their full capture capacity over twelve cycles. The apparent stoichiometry of the captured DVD-Ig-rhIL1α/β complex was calculated under saturating binding conditions (steady-state equilibrium) using the following formula: […]
# (§3) The affinity of the two DVD-Ig binding proteins to hIL-1 as compared to the affinity of chimeric antibodies to hIL-1 was similar as indicated by the evaluation of the stoichiometry to IL-1. Both chimeric antibodies, being bivalent monospecific, bound to IL-1α and IL-1β on Biacore with a stoichiometry of 1.6 and 1.7, respectively. This is common for an IgG due to inter-molecular interference when antibodies are immobilized densely on the Biacore sense chip resulting in stoichiometry being in the range from 1.5 to 2.0.
# [3] = target: T3, recombinant human IL-1β; assay: cell-based or functional assay
# [4] = target: T1, recombinant human IL-1α; assay: SPR (Biacore)
# [5] = target: T1, recombinant human IL-1α; assay: SPR (Biacore), mAb captured via goat anti-mouse IgG
# [6] = target: T1, recombinant human IL-1α; assay: cell-based or functional assay
# [7] = target: T1, recombinant human IL-1α; assay: cell-based or functional assay; remark: listed apart in the source
# [8] = target: T3, recombinant human IL-1β; assay: SPR (Biacore)
# [9] = target: T3, recombinant human IL-1β; assay: SPR (Biacore), mAb captured via goat anti-mouse IgG
# [10] = target: T3, recombinant human IL-1β; assay: cell-based or functional assay; remark: listed apart in the source
# [11] = target: T3, recombinant human IL-1β; assay: cell-based or functional assay; remark: listed apart in the source
# [12] = target: T2, murine IL-1α; assay: affinity, method not named for this table (Biacore elsewhere)
# [13] = target: T2, murine IL-1α; assay: cell-based or functional assay
# [14] = target: T1, recombinant human IL-1α; assay: SPR (Biacore 3000), binder captured via goat anti-human IgG Fc
# Procedure: as §1
# [15] = target: T1, recombinant human IL-1α; assay: SPR (Biacore 3000), saturating binding
# Procedure: as §2, §3
# [16] = target: T1, recombinant human IL-1α; assay: cell-based or functional assay; remark: listed apart in the source
binder,measurement,setting,value
"chimeric 13F5.G5 antibody (antibody, V domains shown, Murine variable domains on human Cγ1 and human Cκ constant regions (13F5.G5-VH-Cγ1, 13F5.G5-VL-Cκ); also called 13F5.G5-Ch; 13F5.G5 chimeric Ab) VH: QVQLQQSGAELVRPGSSVKISCKASGYAFSSYWMNWVKQRPGQGLEWIGQIYPGDGDTNYNGKFKGKATLTADKSSSTSYMQLSGLTSEDSAMYFCVRFPTGNDYYAMDYWGQGTSVTVSS VL: NIVLTQSPASLAVSLGQRATISCRASESVDSYGNSYMHWYQQKPGQPPKLLIYLASNLESGVPARFSGSGSRTDFTLTIDPVEADDAATYYCQQNNEDPFTFGSGTKLEIKR",Kd,[1],0.462 nM
same,koff,[1],0.000654 s⁻¹
same,kon,[1],1.41e+06 M⁻¹ s⁻¹
same,Stoichiometry,[2],1.7
same,"Potency (IC50) M, MRC-5 bioassay",[3],0.53 nM
"murine monoclonal antibody 18F4.2C8 (antibody, V domains shown, Murine hybridoma mAb, anti-hIL-1α) VH: EVQLQQSGAELVKPGASVKLSCTASGLNIKDTYMHWLKQRPEQGLEWIGRIDPANGNAKYDPRFLGKATITADTSSNTAYLQLSSLTSEDTAVYYCARGDGNFHFDYWGQGTTLTVSS VL: DIVMTQSQRFMSTSVGDRVSVTCKASQNVGTNIAWYQQKPGQSPRALIYSASYRYSGVPDRFTGSGSGTDFTLTISNVQSVDLAEYFCQQYTRYPLTFGGGTKLEIKR",Kd,[4],0.595 nM
same,Kd,[5],0.578 nM
same,"IC50 (M), MRC-5 bioassay",[6],3.3e-10 M
same,"IC50 (M), MRC-5 bioassay (inhibition of IL-8 production)",[7],8.9e-11 M
"murine monoclonal antibody 1B12.4H4 (antibody, V domains shown, Murine hybridoma mAb, anti-hIL-1β) VH: QVHLKESGPGLVAPSQSLSITCTVSGFSLTDYGVSWIRQPPGKGLEWLGLIWGGGDTYYNSPLKSRLSIRKDNSKSQVFLKMNSLQTDDTAVYYCAKQRTLWGYDLYGMDYWGQGTSVTVSS VL: ETTVTQSPASLSMAIGEKVTIRCITSTDIDVDMNWYQQKPGEPPKLLISQGNTLRPGVPSRFSSSGSGTDFVFIIENMLSEDVADYYCLQSDNLPLTFGAGTKLELKR",Kd,[8],0.261 nM
same,Kd,[9],0.213 nM
same,"IC50 (M), MRC-5 bioassay",[10],6e-10 M
same,"IC50 (M), MRC-5 bioassay (inhibition of IL-8 production)",[11],5.3e-10 M
"murine monoclonal antibody 6H3.1A4.3E11 (antibody, V domains shown, Murine hybridoma mAb, anti-hIL-1α) VH: QVQLQQPGAELVRPGASVKLSCKASGYTFTTYWMNWVKQRPEQGLEWIGRIDPYDSETLYSQKFKDTAILTVDKSSSTAYMQLSSLTSEDSAVYYCARYGFDYWGQGTTLTVSS VL: QIVLTQSPALMSASPGEKVTMTCSASSSVNYMYWYQQKPRSSPKPWIYLTSNLASGVPARFSGSGSGTSYSLTISSMEAEDAATYYCQQWNSNPYTFGGGTKLEMKR",Kd,[4],0.354 nM
same,Kd,[5],0.354 nM
same,"IC50 (M), MRC-5 bioassay",[6],2.4e-10 M
same,"IC50 (M), MRC-5 bioassay (inhibition of IL-8 production)",[7],2.4e-10 M
"murine monoclonal antibody 6B12.4F6 (antibody, V domains shown, Murine hybridoma mAb, anti-hIL-1β) VH: EVQLQQSGPELVKTGTSVKISCKASGYSFTGYYMHWVRQSHGKSLEWIGYISCYNGFTSYNPKFKGKATFTVDTSSSTAYIQFSRLTSEDSAVYYCARSDYYGTNDYWGQGTTLTVSS VL: QIVLTQSPAIMSASPGEKVTITCSASSSVSYMHWFQQKPGASPKLWIYSTSNLASGVPARFSGSGSGTSYSLTVSRMEAEDAATYYCQQRSTYPYTFGGGTKLEIKR",Kd,[8],0.554 nM
same,Kd,[9],0.554 nM
same,"IC50 (M), MRC-5 bioassay",[10],4e-10 M
same,"IC50 (M), MRC-5 bioassay (inhibition of IL-8 production)",[11],3.2e-10 M
"hIL-1α/β DVD6a-Ig (bispecific antibody, human IgG1, kappa, 6H3.1A4.3E11 (outer) - long linker - 6B12.4F6 (inner), a-b-C orientation) heavy: not shown light: QIVLTQSPALMSASPGEKVTMTCSASSSVNYMYWYQQKPRSSPKPWIYLTSNLASGVPARFSGSGSGTSYSLTISSMEAEDAATYYCQQWNSNPYTFGGGTKLEMKRTVAAPSVFIFPPQIVLTQSPAIMSASPGEKVTITCSASSSVSYMHWFQQKPGASPKLWIYSTSNLASGVPARFSGSGSGTSYSLTVSRMEAEDAATYYCQQRSTYPYTFGGGTKLEIKRRTVAAPSVFIFPPSDEQLKSGTASVVCLLNNFYPREAKVQWKVDNALQSGNSQESVTEQDSKDSTYSLSSTLTLSKADYEKHKVYACEVTHQGLSSPVTKSFNRGEC",Kd,[8],2.09 nM
same,Kd,[4],1.06 nM
same,"Potency (IC50) M, MRC-5 bioassay",[10],70 nM
same,"Potency (IC50) M, MRC-5 bioassay",[6],2.3 nM
"hIL-1α/β DVD5b-Ig (bispecific antibody, human IgG1, kappa, 6B12.4F6 (outer) - short linker - 6H3.1A4.3E11 (inner), b-a-C orientation) heavy: not shown light: QIVLTQSPAIMSASPGEKVTITCSASSSVSYMHWFQQKPGASPKLWIYSTSNLASGVPARFSGSGSGTSYSLTVSRMEAEDAATYYCQQRSTYPYTFGGGTKLEIKRTVAAPQIVLTQSPALMSASPGEKVTMTCSASSSVNYMYWYQQKPRSSPKPWIYLTSNLASGVPARFSGSGSGTSYSLTISSMEAEDAATYYCQQWNSNPYTFGGGTKLEMKRTVAAPSVFIFPPSDEQLKSGTASVVCLLNNFYPREAKVQWKVDNALQSGNSQESVTEQDSKDSTYSLSSTLTLSKADYEKHKVYACEVTHQGLSSPVTKSFNRGEC",Kd,[8],0.671 nM
same,Kd,[4],13.2 nM
same,"Potency (IC50) M, MRC-5 bioassay",[10],0.25 nM
same,"Potency (IC50) M, MRC-5 bioassay",[6],3.3 nM
"hIL-1α/β DVD6b-Ig (bispecific antibody, human IgG1, kappa, 6B12.4F6 (outer) - long linker - 6H3.1A4.3E11 (inner), b-a-C orientation) heavy: not shown light: QIVLTQSPAIMSASPGEKVTITCSASSSVSYMHWFQQKPGASPKLWIYSTSNLASGVPARFSGSGSGTSYSLTVSRMEAEDAATYYCQQRSTYPYTFGGGTKLEIKRTVAAPSVFIFPPQIVLTQSPALMSASPGEKVTMTCSASSSVNYMYWYQQKPRSSPKPWIYLTSNLASGVPARFSGSGSGTSYSLTISSMEAEDAATYYCQQWNSNPYTFGGGTKLEMKRRTVAAPSVFIFPPSDEQLKSGTASVVCLLNNFYPREAKVQWKVDNALQSGNSQESVTEQDSKDSTYSLSSTLTLSKADYEKHKVYACEVTHQGLSSPVTKSFNRGEC",Kd,[8],0.697 nM
same,Kd,[4],0.82 nM
same,"Potency (IC50) M, MRC-5 bioassay",[10],0.75 nM
same,"Potency (IC50) M, MRC-5 bioassay",[6],1 nM
"mouse anti-mouse IL-1α monoclonal antibody 9H10 (antibody, V domains shown, Mouse mAb from IL-1αβ double KO mice; also called anti-IL-1α (9H10)) VH: QVILKESGPGILQPSQTLSLTCSFSGFSLSTYGTAVNWIRQPSGKGLEWLAQIGSDDRKLYNPFLKSRITLSEDTSNSQVFLKITSVDTEDSATYYCANGVMEYWGLGTSVTVSS VL: SIVMTQTPKFLLVSAGDRVTITCKASQSVNHDVAWYQQMPGQSPKLLIYFASNRYTGVPDRFTGSGYGTDFTFTISTVQAEDLAVYFCQQDYSSPYTFGGGTKLEIKR",Kd,[12],0.173 nM
same,"IC50 (M), in vitro potency",[13],2e-10 M
"chimeric 3D12.E3 antibody (antibody, V domains shown, Murine variable domains on human Cγ1 and human Cκ constant regions (3D12.E3-VH-hCγ1, 3D12.E3-VL-hCκ); also called 3D12.E3-Ch; 3D12.E3 chimeric Ab) VH: QIQLVQSGPELKKPGETVKISCKASGYTFRNYGMNWVKQAPGKDLKRMAWINTYTGESTYADDFKGRFAFSLETSASTAYLQINNLKNEDTATYFCARGIYYYGSSYAMDYWGQGTSVTVSS VL: NIQMTQTTSSLSASLGDRVTISCRASQDISNCLNWYQQKPDGTVKLLIYYTSRLHSGVPSRFSGSGSGTDYSLTISNLEQEDIATYFCQQGKTLPYAFGGGTKLEINR",Kd,[14],1.34 nM
same,koff,[14],0.000552 s⁻¹
same,kon,[14],412000 M⁻¹ s⁻¹
same,Stoichiometry,[15],1.6
same,"Potency (IC50) M, MRC-5 bioassay",[16],0.7 nM

# — patent US20120201781A1 (AbbVie / Abbott, published 2012)
